Laboratory results: patent US20240010684A1, “MASP INHIBITORY COMPOUNDS AND USES THEREOF” (BAYER AKTIENGESELLSCHAFT, priority 2020, published 2024)

How the values were obtained:
[1] = biological target: recombinant human MASP2 (amino acids 297-686, C-terminal His Tag) (human) (UniProt O00187); assay: cell-based or functional assay
[2] = biological target: T1, recombinant human MASP1 (amino acids 297-699, C-terminal His Tag) (human) (UniProt P48740); assay: cell-based or functional assay
T1 sequence: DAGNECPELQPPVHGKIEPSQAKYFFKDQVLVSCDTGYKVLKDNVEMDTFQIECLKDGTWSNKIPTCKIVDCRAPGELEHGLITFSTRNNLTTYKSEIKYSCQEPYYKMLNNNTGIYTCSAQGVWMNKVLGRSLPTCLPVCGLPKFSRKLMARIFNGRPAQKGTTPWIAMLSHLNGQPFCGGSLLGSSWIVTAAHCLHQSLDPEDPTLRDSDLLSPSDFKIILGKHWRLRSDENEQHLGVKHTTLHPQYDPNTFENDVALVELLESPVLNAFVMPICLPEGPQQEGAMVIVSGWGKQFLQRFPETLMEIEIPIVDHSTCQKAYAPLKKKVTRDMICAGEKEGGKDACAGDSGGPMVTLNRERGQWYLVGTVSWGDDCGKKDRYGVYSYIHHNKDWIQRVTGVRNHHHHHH

recombinant human MASP2 (amino acids 297-686, C-terminal His Tag) (human), sequence (O00187 other isoform, or with tags, fused parts or gaps limits assumed): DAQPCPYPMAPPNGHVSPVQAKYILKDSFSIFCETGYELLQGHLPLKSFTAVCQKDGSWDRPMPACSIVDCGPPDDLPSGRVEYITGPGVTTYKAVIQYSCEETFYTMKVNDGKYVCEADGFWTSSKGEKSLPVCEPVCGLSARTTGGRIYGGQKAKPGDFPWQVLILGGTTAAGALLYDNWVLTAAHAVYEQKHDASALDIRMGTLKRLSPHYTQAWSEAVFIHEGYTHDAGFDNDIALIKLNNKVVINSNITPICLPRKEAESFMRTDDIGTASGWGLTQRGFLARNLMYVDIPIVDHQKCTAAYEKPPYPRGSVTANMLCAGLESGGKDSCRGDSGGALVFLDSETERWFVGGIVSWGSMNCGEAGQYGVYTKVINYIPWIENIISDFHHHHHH

human MASP2 IC50 [1]: 66 nM
human MASP1 IC50 [2]: 8.2 nM
Substance: Example 47: A**GGIC+SRS-((tBu)A)-PPI-((N-Me)C)+-IPd** (peptide)
